# Data taken from paper PMC5524322, “Species A rotavirus NSP3 acquires its translation inhibitory function prior to stable dimer formation” (PLoS ONE, 2017).
# B1: wild type NSP3 (non-structural protein 3) of simian species A rotavirus strain RRV [simian rotavirus A strain RRV] / itself (parent complex)
# chain: MESTQQMASSIINSSFEAAVVAATSTLELMGIQYDYNEVYTRVKSKFDLVMDDSGVKNNLIGKAITIDQALNGKFSSAIRNRNWMTDSRTVAKLDEDVNKLRIMLSSKGIDQKMRVLNACFSVKRIPGKSSSIVKCTRLMKDKLERGEVEVDDSFVEEKMEVDTIDWKSRYEQLEKRFESLKHRVNEKYNHWVLKARKVNENMNSLQNVISQQQAHINELQMYNNKLERDLQSKIGSVVSSIEWYLRSMELSDDVKSDIEQQLNSIDQLNPVNAIDDFESILRNLISDYDRLFIMFKGLLQQCNYTYTYE
# Variants of: B1
# Experiment: non-dissociating Western blot (WB-ND) densitometry; parent: 1; read off a plot
row,Variant,ratio to parent
1,"chain 1 R184E, chain 1 K188E",~0.13
2,chain 1 R170E,~0.17
3,chain 1 Y189A,~1.8
4,chain 1 K168E,~0.32
